In article PMC4449551, “The dominant negative ARM domain uncovers multiple functions of PUB13 in Arabidopsis immunity, flowering, and senescence” (Journal of Experimental Botany, 2015):

Biological target: T1, GST–PUB13 (Arabidopsis, UniProt Q9SNC6 1-660)
T1 construct: PUB13, plant U-box E3 ubiquitin ligase of Arabidopsis, full length (UND, U-box and ARM repeat domain); also called full-length PUB13; source: E. coli BL21, purified (glutathione agarose)
T1 sequence (looked up): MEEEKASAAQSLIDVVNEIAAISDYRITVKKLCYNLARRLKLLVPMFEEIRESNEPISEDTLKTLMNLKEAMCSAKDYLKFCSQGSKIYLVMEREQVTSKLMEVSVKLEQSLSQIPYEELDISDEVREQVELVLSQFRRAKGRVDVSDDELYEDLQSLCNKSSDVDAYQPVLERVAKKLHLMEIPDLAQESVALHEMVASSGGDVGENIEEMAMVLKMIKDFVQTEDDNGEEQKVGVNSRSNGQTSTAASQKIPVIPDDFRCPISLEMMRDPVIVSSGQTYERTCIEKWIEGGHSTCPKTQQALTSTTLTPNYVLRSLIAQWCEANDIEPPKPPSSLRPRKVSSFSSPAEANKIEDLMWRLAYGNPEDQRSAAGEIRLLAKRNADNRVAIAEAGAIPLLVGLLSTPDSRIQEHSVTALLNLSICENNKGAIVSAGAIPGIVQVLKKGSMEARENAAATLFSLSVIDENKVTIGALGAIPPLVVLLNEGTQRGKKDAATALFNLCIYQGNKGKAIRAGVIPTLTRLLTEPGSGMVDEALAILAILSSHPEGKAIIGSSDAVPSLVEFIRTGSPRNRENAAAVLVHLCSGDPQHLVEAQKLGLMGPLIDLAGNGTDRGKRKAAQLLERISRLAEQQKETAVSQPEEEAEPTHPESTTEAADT
Test: pull-down; About 10 μg of MBP or MBP fusion on amylose beads as bait, 10 μg of GST-tagged protein in 1 ml pull-down buffer (20mM TRIS-HCl pH 7.5, 1mM β-mercaptoethanol, 3mM EDTA, 150mM NaCl, 1% NP-40), 1h at 4 °C; western blot with α-GST (Fig. 1B, 1F)
Conditions: both partners purified

B1: MBP–BAK1CD (domain or fragment, Arabidopsis, UniProt Q94F62 247-615, looked up)
chain: AWWRRKKPQDHFFDVPAEEDPEVHLGQLKRFSLRELQVASDNFSNKNILGRGGFGKVYKGRLADGTLVAVKRLKEERTQGGELQFQTEVEMISMAVHRNLLRLRGFCMTPTERLLVYPYMANGSVASCLRERPESQPPLDWPKRQRIALGSARGLAYLHDHCDPKIIHRDVKAANILLDEEFEAVVGDFGLAKLMDYKDTHVTTAVRGTIGHIAPEYLSTGKSSEKTDVFGYGVMLLELITGQRAFDLARLANDDDVMLLDWVKGLLKEKKLEALVDVDLQGNYKDEEVEQLIQVALLCTQSSPMERPKMSEVVRMLEGDGLAERWEEWQKEEMFRQDFNYPTHHPAVSGWIIGDSTSQIENEYPSGPR
notes: BAK1 (BRI1-associated kinase), receptor-like kinase of Arabidopsis, cytoplasmic domain; also called cytoplasmic domain of BAK1; BAK1 cytosolic domain; source: E. coli BL21, purified (amylose)
**Q.** Does B1 bind?
**A.** binds
